Numbering of substitutions follows the chain as printed. Ends that are not written are not given here.
What was measured:
[1] = biological target: recombinant αvβ8 ectodomain (Homo sapiens (Human), UniProt P06756 31-992; P26012 43-684); assay: ELISA, Mab coated at the given concentration, αvβ8 ectodomain 0.5 µg/ml, detected with biotinylated anti-αv 8B8 and SA-HRP; specific binding minus SV5 control
Description: As a negative control, some wells were coated with anti-SV5 at the same concentrations. Non-specific binding sites were blocked with BSA.

[2] = biological target: T1, recombinant human integrin αvβ8 (human, UniProt P06756 31-992; P26012 43-684); assay: ELISA, Mab coated at 5 ug/ml, receptor 0.5 µg/ml in Mg buffer (1 mM Ca++ and 1 mM Mg++), detected with biotinylated anti-αv 8B8
T1 construct: also called Human Integrin alpha V beta 8; purified recombinant αvβ8
Protocol: (§1) Binding in EDTA containing buffer defines cation-dependence because EDTA binds to Ca⁺⁺ and Mg′. Magnesium cation buffers contains 1 mM Ca⁺⁺ and 1 mM Mg⁺⁺. Here, the results are relative to anti-av, clone 11D12V2. All antibodies were coated on ELISA plates at 5 μg/ml.

[3] = biological target: T2, recombinant human integrin αvβ6 (human, UniProt P18564 22-707); assay: as above
T2 construct: also called αvβ6 (R&D systems); αvβ6 receptor
Protocol: as §1

[4] = biological target: T1, recombinant human integrin αvβ8; assay: blocking of adhesion (A590) of Cho cells expressing GARP/LTGFB1 to immobilized αvβ8; antibody concentration varied; unit taken from the axis log[Agonist], (ug/ml)
Description: (§2) Here, Cho3.2.8.1 cells were transfected with GARP and LTGFB1.

[5] = biological target: T2, recombinant human integrin αvβ6; assay: blocking of adhesion (A590) of Cho cells expressing GARP/LTGFB1 to immobilized αvβ6; antibody concentration varied; unit taken from the axis log[Agonist], (ug/ml)
Description: as §2

[6] = biological target: T3, recombinant human integrin αvβ5 (human, UniProt P18084 24-719); assay: ELISA on coated recombinant human integrin; 0 = no apparent binding
T3 construct: Bought; also called αvβ5 (R&D systems)
Description: (§3) Binding was quantified by intensity as 0-4 (0 representing no apparent binding; 4 representing robust binding) and results normalized to expression.

[7] = biological target: T4, recombinant human integrin αvβ1 (human, UniProt P05556 21-728); assay: as above
T4 construct: Bought; also called αvβ1 (R&D systems)
Description: as §3

[8] = biological target: T5, recombinant human integrin αvβ3 (human, UniProt P05106 27-718); assay: as above
T5 construct: Bought; also called αvβ3 (R&D systems)
Description: as §3

[9] = biological target: T1, recombinant human integrin αvβ8; assay: ELISA: integrin coated on plate, supernatant of transfected 293 cells at 1/10 dilution, anti-mouse IgG-HRP; score normalized to expression;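 also: scale runs from 0 (no apparent binding) to 4 (robust binding), with scores adjusted for clone protein expression as determined by a murine IgG ELISA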
Description: as §3

[10] = biological target: T1, recombinant human integrin αvβ8; assay: cell-based or functional assay
[11] = biological target: T2, recombinant human integrin αvβ6; assay: competition of RGD3 with 3G9 for binding to αvβ6 (sheet title: modest cross-competition); y axis 'Relative Inhibition of avb6 binding to TGFb3 peptide'; signal falls from about 1.0 only to about 0.55 at log 4
[12] = biological target: T2, recombinant human integrin αvβ6; assay: cell-based or functional assay
[13] = biological target: T3, recombinant human integrin αvβ5; assay: ELISA, integrin coated, rabbit IgG detected with anti-rabbit HRP; relative to anti-αv (8B8) control wells
Protocol: (§4) All integrins were coated on ELISA plates at 2 mg/ml, blocked with BSA, and antibodies were allowed to bind.

[14] = biological target: T4, recombinant human integrin αvβ1; assay: as above
Protocol: as §4

[15] = biological target: T5, recombinant human integrin αvβ3; assay: as above
Protocol: as §4

[16] = biological target: T1, recombinant human integrin αvβ8; assay: Kinetic Exclusion Assay (KinExA), C6D4 as murine IgG2a
[17] = biological target: T6, truncated secreted form of αvβ8 fused in frame to alkaline phosphatase; assay: ELISA: inhibition of binding of secreted αvβ8-alkaline phosphatase to coated TGF-β3 RGD peptide (1 µg/ml), OD405; fitted value in the table under the graph; unit from the axis and paragraph 229
T6 construct: Printed: truncated secreted form; also called alkaline phosphatase (AP) αvβ8 fusion protein; secreted αvβ8

[18] = biological target: T2, recombinant human integrin αvβ6; assay: ELISA, Mab coated at 5 ug/ml, αvβ6 receptor 0.5 µg/ml, detected with biotinylated anti-αv 8B8; percent of binding to anti-αv clone 11D12V2
Protocol: as §1

[19] = biological target: T2, recombinant human integrin αvβ6; assay: ELISA, integrin coated, rabbit IgG detected with anti-rabbit HRP; relative to anti-αv (8B8) control wells
Protocol: as §4

[20] = biological target: T1, recombinant human integrin αvβ8; assay: scFv yeast display selection from random mutation libraries of clones 29 and 44
[21] = biological target: T7, human integrin αvβ8 on CHO cells (human, UniProt P06756 31-1048; P26012 43-769); assay: cell adhesion to coated peptide, crystal violet, signal above mock transfected cells (FIG. 25)
T7 construct: also called CHO cells expressing αvβ8; CHO lec cells stably transfected with αvβ8

T2 sequence (chain, as listed by the source limits assumed, chain 1 of 2): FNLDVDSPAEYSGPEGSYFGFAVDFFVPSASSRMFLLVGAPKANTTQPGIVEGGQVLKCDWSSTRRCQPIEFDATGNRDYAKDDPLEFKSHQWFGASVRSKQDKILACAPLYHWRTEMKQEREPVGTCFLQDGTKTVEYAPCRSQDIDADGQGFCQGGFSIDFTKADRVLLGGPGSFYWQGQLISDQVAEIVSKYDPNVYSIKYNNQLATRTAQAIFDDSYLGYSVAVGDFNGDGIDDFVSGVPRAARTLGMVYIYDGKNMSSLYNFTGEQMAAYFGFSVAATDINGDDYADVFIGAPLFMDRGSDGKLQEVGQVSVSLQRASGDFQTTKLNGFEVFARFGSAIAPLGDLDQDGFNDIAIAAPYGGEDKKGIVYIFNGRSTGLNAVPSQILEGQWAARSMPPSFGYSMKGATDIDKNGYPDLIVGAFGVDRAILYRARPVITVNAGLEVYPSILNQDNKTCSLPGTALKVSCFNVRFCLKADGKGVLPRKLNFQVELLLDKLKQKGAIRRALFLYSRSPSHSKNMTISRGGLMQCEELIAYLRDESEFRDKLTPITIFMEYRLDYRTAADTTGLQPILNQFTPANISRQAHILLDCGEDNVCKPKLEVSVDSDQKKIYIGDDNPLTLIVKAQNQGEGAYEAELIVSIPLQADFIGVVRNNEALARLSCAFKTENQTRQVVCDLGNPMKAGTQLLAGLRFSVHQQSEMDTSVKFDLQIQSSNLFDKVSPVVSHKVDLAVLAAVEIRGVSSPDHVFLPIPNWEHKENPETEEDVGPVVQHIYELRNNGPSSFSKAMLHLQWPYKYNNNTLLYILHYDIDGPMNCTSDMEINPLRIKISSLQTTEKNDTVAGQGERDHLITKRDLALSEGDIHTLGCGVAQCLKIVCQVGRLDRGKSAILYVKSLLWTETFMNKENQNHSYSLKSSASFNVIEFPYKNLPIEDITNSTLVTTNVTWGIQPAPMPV
T2 sequence (P18564 22-707 limits assumed, chain 2 of 2): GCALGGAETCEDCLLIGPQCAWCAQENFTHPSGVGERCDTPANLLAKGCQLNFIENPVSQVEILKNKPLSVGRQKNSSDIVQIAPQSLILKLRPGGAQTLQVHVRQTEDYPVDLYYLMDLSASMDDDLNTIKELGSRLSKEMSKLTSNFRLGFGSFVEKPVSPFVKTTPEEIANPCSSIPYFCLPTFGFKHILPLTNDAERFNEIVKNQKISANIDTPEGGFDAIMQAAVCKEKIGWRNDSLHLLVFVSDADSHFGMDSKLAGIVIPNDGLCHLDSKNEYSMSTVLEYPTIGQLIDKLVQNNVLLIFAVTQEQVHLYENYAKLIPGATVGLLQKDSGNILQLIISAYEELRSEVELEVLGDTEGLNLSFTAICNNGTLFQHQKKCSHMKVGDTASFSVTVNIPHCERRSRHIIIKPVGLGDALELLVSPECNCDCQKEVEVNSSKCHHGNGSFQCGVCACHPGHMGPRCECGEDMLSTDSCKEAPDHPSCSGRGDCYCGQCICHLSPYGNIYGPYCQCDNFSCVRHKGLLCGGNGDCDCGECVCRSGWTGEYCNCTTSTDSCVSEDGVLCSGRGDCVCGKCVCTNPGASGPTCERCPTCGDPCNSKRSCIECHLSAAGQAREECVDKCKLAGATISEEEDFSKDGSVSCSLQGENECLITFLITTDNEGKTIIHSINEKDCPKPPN
T3 sequence (chain, as listed by the source limits assumed, chain 1 of 2): as the sequence (chain, as listed by the source limits assumed, chain 1 of 2) above
T3 sequence (P18084 24-719 limits assumed, chain 2 of 2): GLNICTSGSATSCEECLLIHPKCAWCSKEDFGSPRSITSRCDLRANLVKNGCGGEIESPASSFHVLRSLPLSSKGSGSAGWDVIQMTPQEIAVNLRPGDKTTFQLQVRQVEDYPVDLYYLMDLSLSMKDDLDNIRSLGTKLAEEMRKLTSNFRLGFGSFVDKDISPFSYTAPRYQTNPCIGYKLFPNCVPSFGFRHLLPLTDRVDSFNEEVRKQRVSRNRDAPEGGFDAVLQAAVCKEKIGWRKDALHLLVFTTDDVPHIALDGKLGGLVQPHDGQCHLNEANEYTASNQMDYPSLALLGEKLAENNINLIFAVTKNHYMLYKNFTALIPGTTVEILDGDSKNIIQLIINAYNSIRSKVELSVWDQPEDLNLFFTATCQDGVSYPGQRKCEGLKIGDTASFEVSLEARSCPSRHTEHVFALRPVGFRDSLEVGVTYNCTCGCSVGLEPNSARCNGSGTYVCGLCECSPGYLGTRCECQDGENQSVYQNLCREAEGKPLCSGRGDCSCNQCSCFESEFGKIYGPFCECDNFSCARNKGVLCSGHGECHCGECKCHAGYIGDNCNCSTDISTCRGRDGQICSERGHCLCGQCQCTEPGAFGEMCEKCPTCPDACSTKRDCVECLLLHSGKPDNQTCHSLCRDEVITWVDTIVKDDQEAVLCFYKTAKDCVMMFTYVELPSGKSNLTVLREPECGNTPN
T1 sequence (P06756 31-992 limits assumed, chain 1 of 2): as the sequence (chain, as listed by the source limits assumed, chain 1 of 2) above
T1 sequence (P26012 43-684 limits assumed, chain 2 of 2): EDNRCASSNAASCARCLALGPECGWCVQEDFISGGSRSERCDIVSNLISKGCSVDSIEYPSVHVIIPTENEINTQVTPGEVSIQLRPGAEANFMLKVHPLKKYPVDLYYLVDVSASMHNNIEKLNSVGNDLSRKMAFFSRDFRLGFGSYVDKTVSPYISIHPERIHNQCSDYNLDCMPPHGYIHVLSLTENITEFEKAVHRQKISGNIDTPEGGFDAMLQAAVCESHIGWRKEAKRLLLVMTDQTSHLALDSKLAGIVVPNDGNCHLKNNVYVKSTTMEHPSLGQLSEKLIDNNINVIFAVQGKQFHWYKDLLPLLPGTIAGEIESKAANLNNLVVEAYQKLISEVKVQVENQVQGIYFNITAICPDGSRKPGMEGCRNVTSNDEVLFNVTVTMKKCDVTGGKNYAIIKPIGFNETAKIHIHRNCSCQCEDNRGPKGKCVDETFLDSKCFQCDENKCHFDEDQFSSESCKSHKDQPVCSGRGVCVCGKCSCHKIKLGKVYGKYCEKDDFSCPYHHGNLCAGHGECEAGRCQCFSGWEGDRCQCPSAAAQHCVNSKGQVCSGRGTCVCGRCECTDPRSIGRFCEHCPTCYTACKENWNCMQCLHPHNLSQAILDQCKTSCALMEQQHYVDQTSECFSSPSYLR

B1: Humanized C6D4-RGD3 (HuC6D4-RGD3) (antibody, V domains shown)
VH: QIQLVQSGAEVKKPGASVKISCKASGYTFTDYSMHWVRQAPGQGLEWVARINTETGEPTFADDFRGRFTVTLDTSTSTAYLEIRSLRSDDTAVYFCAIFYYGRDTWGQGTTLTVSS
VL: EIVMTQSPATLSVSPGERVTMSCKSSQSLLGRGDLGRLKKNALAWYQQKPGQAPRLLIYWASTRESGVPARFSGSGSGTEFTLTISSVQSEDFAVYYCKQSYNLLSFGQGTVLEIKR
notes: Frameworks and CH1 are human; hinge and CH2-3 are mouse; also called humanized RGD3
- binding result [1]: binds

B2: C6D4-RGD3 (antibody, V domains shown)
VH: QIQLLQSGPELKKPGETVKISCKASGYTFTDYSMHWVKQAPGKGLKWVARINTETGEPTFADDFRGRFAVSLETSASTAYLQINNLKNEDTATYFCAIFYYGRDSWGQGTTLTVSS
VL: DIVMTQSPSSLAVSAGEKVTMSCKSSQSLLGRGDLGRLKKNALAWYQQKPGQSPRLLIYWASTRESGVPDRFTGSGSGTDFTLTISSVQAEDLAVYYCKQSYNLLSFGAGTKLELKR
notes: also called CD64-RGD3; C6 / RGD3
- Binding in Mg buffer relative to clone 68 (% compared with binding to anti-av clone 11D12V2) [2]: 98%
- Binding in Mg buffer relative to clone 68 (% compared with binding to anti-av clone 11D12V2) [3]: 120%
- EC50 [4]: 1.19 µg/mL
- EC50 [5]: 0.479 µg/mL
- binding result [6]: no binding (tested: supernatant at 1/10 dilution)
- binding result [7]: no binding (tested: supernatant at 1/10 dilution)
- binding result [8]: no binding (tested: supernatant at 1/10 dilution)
- binding intensity score (0-4) [9]: 4 score 0-4
- EC50 of inhibition of TGF-β activation (TMLC luciferase reporter) of GARP/LTGFB1 Cho cells on immobilized αvβ8; unit from the axis [10]: 0.854 µg/mL
- LogEC50 [11]: 3.78 Log10 (ng/ml)
- EC50 of inhibition of TGF-β activation (TMLC luciferase reporter) of GARP/LTGFB1 Cho cells on immobilized αvβ6; unit from the axis [12]: 0.412 µg/mL

B3: C6D4-RGD3 as rabbit IgG (C6VH expressed with the RGD3 mutant Vk) (antibody, V domains shown)
VH: B2 VH
VL: B2 VL
notes: also called C6D4-RGD3 mutant
- binding result [13]: no binding
- binding result [14]: no binding
- binding result [15]: no binding

B4: C6D4 (composite antibody of C6 VH and D4 VK; murine IgG2a) (antibody, V domains shown)
VH: B2 VH
VL: DIVMTQSPSSLAVSAGEKVTMSCKSSQSLLNSRTRKNYLAWYQQKPGQSPRLLIYWASTRESGVPDRFTGSGSGTDFTLTISSVQAEDLAVYYCKQSYNLLSFGAGTKLELKR
notes: also called C6D4 murine IgG2a; Mab C6D4
- Binding in Mg buffer relative to clone 68 (% compared with binding to anti-av clone 11D12V2) [2]: 103%
- Kd [16]: 0.832 nM
- EC50 [4]: 1.2 µg/mL
- IC50 [17]: 0.494 µg/mL
- binding result [6]: no binding (tested: supernatant at 1/10 dilution)
- binding result [7]: no binding (tested: supernatant at 1/10 dilution)
- binding result [8]: no binding (tested: supernatant at 1/10 dilution)
- binding result [18]: no binding (tested: 5 ug/ml (coated Mab))
- binding intensity score (0-4) [9]: 4 score 0-4
- EC50 of inhibition of TGF-β activation (TMLC luciferase reporter) of GARP/LTGFB1 Cho cells on immobilized αvβ8; unit from the axis [10]: 1.04 µg/mL

B5: C6D4 as rabbit IgG (C6VH expressed with D4 Vk) (antibody, V domains shown)
VH: B2 VH
VL: B4 VL
notes: also called wildtype C6D4
- binding result [13]: no binding
- binding result [15]: no binding
- binding result [19]: no binding

B6: clone C6 (scFv, yeast display) (scFv, V domains shown)
VH: B2 VH with T111A
VL: B4 VL with T5S, S102T, R113A
notes: scFv on yeast; also called A5=C6
- binding result [20]: binds

B7: TGF-β3 RGD multiple antigen presenting peptide DDHGRGDLGRLK (peptide)
peptide: DDHGRGDLGRLK
modifications: also: multiple antigen presenting peptide on 8-lysine core (branched)
notes: Branched peptide on a lysine core; also called L-TGF-b3 peptide; TGFb3 peptide
- binding result [21]: binds
